Laboratory results published in publication PMC11189558, “Mutations found in cancer patients compromise DNA binding of the winged helix protein STK19”.

Legend:
Experiment in all cases: EMSA; 20 mM HEPES pH 7.4, 100 mM NaCl, 1 mM MgCl2, 1 mg/ml BSA, 2 mM DTT, 5% glycerol; 30 min on ice; native 5% PAGE in 1X TBE
Details in all cases: protein: recombinant; tags: GST cleaved; GPLGS left at N-terminus; blunt
STK19 K186E = STK19 K186E (human, UniProt P49842 31-254, K186E)
STK19 R200E/K201E/K203E = STK19 R200E/K201E/K203E (human, UniProt P49842 31-254, R200E;K201E;K203E)
STK19 R215E/R216E = STK19 R215E/R216E (human, UniProt P49842 31-254, R215E;R216E)

Measured: binding result

STK19 R200E/K201E/K203E, sequence (P49842 31-254 R200E/K201E/K203E): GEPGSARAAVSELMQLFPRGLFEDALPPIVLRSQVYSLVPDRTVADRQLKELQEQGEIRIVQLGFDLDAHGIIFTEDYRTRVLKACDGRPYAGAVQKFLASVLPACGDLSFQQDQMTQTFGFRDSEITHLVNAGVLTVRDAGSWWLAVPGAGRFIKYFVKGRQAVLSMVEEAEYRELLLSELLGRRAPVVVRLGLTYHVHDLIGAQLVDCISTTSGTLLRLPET
STK19 K186E, sequence (P49842 31-254 K186E): as the sequence (P49842 31-254 R200E/K201E/K203E) above, with K156E, E170R, E171K, E173K counted along it
STK19 R215E/R216E, sequence (P49842 31-254 R215E/R216E): as the sequence (P49842 31-254 R200E/K201E/K203E) above, with E170R, E171K, E173K, R185E, R186E counted along it

B1: 59 bp dsDNA (dsDNA)
DNA 1: GAGCTGCCGAATTCTACCAGTGCCTTGCTAGGACATCTTTGCCCACCTGCAGGTTCACC
DNA 2: GGTGAACCTGCAGGTGGGCAAAGATGTCCTAGCAAGGCACTGGTAGAATTCGGCAGCTC
no binding: all assays above
